The source of these data is patent US9290544B2, “Methods for making and using molecular switches involving circular permutation” (priority 2004, dated 2016).

Data set [1] in a line: Nitrocefin hydrolysis in soluble fraction of cell lysates with and without 5 mM maltose (screen and confirmation of positives). The class given is biochemical. Particulars: 50 μM nitrocefin; 5 mM maltose; 100 mM sodium phosphate buffer, pH 7.0. Here is the method:
Next, 50 μl of PopCulture (Novagen) and 2.5 unit of benzonase nuclease was added to each well and incubated for 15 minutes at room temperature to lyse the cells. The cells debris and any unlysed cells were pelleted by centrifugation and supernatant was recovered. In 96-well format, 60 μl of lysate was assayed for hydrolysis of nitrocefin (50 μM) by monitoring the increase in absorbance at 490 nm in 100 mM sodium phosphate buffer, pH 7.0, both with and without 5 mM maltose. Any lysate in which there was a difference in rate of more than 2-fold (between with and without maltose) was selected for retesting and further investigation.
Library members identified as having more than 200% switching activity in the 96-well plate screen were grown 24-48 hours in 100 ml LB media in 500 ml shaker flasks at 22° C. without IPTG. The cells were pelleted and resuspended in 8 ml assay buffer (100 mM sodium phosphate buffer, pH 7.0) and lysed by French press. The soluble fraction of this lysate was assayed for hydrolysis of nitrocefin (50 μM) at 22° C. as previously described (Guntas and Ostermeier 2004) both with and without 5 mM maltose. Initial rates were determined from absorbance at 486 nm monitored as a function of time. The enzyme was incubated at the assay temperature in the absence or presence of 5 mM maltose for four minutes prior to performing the assay. All assays contained 100 mM sodium phosphate buffer, pH 7.0. Library members for which there was a difference in the initial rate of more than about 2-fold were sequenced (Table 4). Switches RG-5-169 and RG-200-13 were also assayed in the presence of 5 mM sucrose or 5 mM glucose.

Data set [2] is described as follows: Magnitude of switching in soluble fraction of cell lysates, Libraries 2-7 (FIG. 13). The format is biochemical. Particulars: room temperature, 50 μM nitrocefin. The protocol:
Libraries were plated on LB plates containing […] at the indicated concentrations of ampicillin and incubated at 37° C. overnight. From these plates, colonies were picked to inoculate 1 ml LB media (supplemented with 50 μg/ml chloramphenicol and 1 mM IPTG) in 96-well format. Lysates from these cultures were assayed for nitrocefin hydrolysis activity in the presence and absence of maltose as described above.
Libraries 2-7 were plated on different levels of ampicillin in the presence of 50 mM maltose. Colonies that grew were used to inoculate 96-well plates. The resulting cultures were lysed and assayed at room temperature for nitrocefin hydrolysis in the presence and absence of maltose in 96-well format.
FIG. 13 is a schematic depiction of the library construction schemes for Libraries 2-7, and of particular switches identified from these libraries. The arrowheads indicate the sites of insertion. Multiple arrowheads on one gene indicate random insertion sites. Dashed arrows indicate a particular switch on which successive libraries were based. The magnitude of switching was determined on the soluble fraction of cell lysates at room temperature using 50 μM nitrocefin. For switches with a rate increase in the presence of maltose, the ratio is of “with maltose” to “without maltose” (indicated by no sign in front of the value). […]

The nature of data set [3]: Apparent dissociation constant for maltose from initial rate of nitrocefin hydrolysis. The format is binding. Particulars: 25° C. Here is the method: [formula] where ΔF is the change in fluorescence intensity, ΔFmax is the difference in fluorescence between no maltose and saturating amounts of maltose and [L] is the maltose concentration. The fluorescence quenching of RG13(1329W/A96W) upon addition of maltose was insufficient to accurately determine a Kd by this method. The dissociation constant for maltose and RG13(I329W) in the presence of saturating carbenicillin (2 mM) was determined by measuring the initial rate of carbenicillin hydrolysis as a function of maltose concentration. The apparent dissociation constant in the presence of subsaturating concentrations of nitrocefin (25 μM) for all three proteins was determined by measuring the initial rate of nitrocefin hydrolysis as a function of maltose concentration.

Data set [4] can be described thus: Steady state kinetics of nitrocefin hydrolysis, purified RG13 proteins, 25° C. The format is biochemical. Particulars: for Km / kcat: nitrocefin. The protocol:
All kinetic assays were performed at 25° C. in the presence of 100 mM sodium phosphate buffer, pH 7.0. Ten μl of enzyme stock was added to 1.59 ml buffer (containing the saccharide, if desired). After incubation for 30 seconds, 0.4 ml of 5× substrate was added and the absorbance at the appropriate wavelength was recorded using the Cary50 UV-VIS spectrophotometer. The wavelength monitored was 486 nm, 240 nm, and 232 nm for nitrocefin, carbenicillin, and ampicillin respectively. From the initial rate of reaction the kinetic constants were determined using Eadie-Hofstee plots. […] The rate data was consistent with a small hysteretic effect (Brennan et al. 1994) and not substrate inhibition as preincubation of the enzyme with the substrate for one minute prevented the lag from occurring upon addition of more substrate. Therefore, the steady state parameters for nitrocefin hydrolysis in the absence of maltose were determined by measuring the rate at 1-2 minutes (well after the lag) and correcting the substrate concentration by subtracting the amount of substrate hydrolyzed. In all cases the extent of reaction at the point the rate was measured was less than 25%. In the presence of maltose, no lag was observed.

For data set [5] the following is noted: cited from earlier work.
The subject of the next data set is DH5α-E cells. Nature of the data set: In vivo characterization: MIC of ampicillin for DH5α-E cells expressing the protein. The class given is cell-based, E. coli. Particulars: LB plates, 37° C., 20 hours. The protocol:
Overnight inoculums of DH5α-E cells expressing RG13, BLA or BLA(W208G) were diluted into LB media and plated on LB plates, either in the absence or presence of 50 μM maltose, in the presence of increasing amounts of ampicillin. Ampicillin was present in the plates at the following concentrations: 0, 2, 4, 8, 16, 32, 64, 128, 256, 512, and 2000 μg/ml. Cells were plated at approximately 1000 CFU (no antibiotic) per plate. The plates were incubated at 37° C. for 20 hours. The minimum inhibitory concentration (MIC) was defined as the lowest ampicillin concentration at which no colonies were present, or that at which the number of colonies present was <1% of the number of colonies at the next lowest level of ampicillin.

[6] abbreviates: effector maltose 5 mM (saturating).
Where [7] appears, read: effector maltose 5 mM (saturating), 25° C.

Read-outs that look alike come from different tables or passages of the source.

With “IFD-5-7: MBP[1-165]-BLA[110-286]-DKS-BLA[24-107]-MBP[164-370]; SEQ ID NO: 67”, in data set [1], the “Switching effect: percent change in velocity of nitrocefin hydrolysis in the presence of 5 mM maltose” value is recorded as “+96%”.
Same read-out and setting: next, “IFD-5-15: MBP[1-165]-BLA[168-286]-DKS-BLA[24-170]-MBP[164-370]; SEQ ID NO: 71”: “+97%”.
For the molecule “IFG-5-277: MBP[1-165]-BLA[218-286]-GSGGG-BLA[24-215]-MBP[164-370]; maltose is a negative effector; SEQ ID NO: 69”, the “Effect of maltose on catalytic activity (magnitude of switching)” value in data set [2] is “negative effector”. Further, in data set [1], the “Switching effect: percent change in velocity of nitrocefin hydrolysis in the presence of 5 mM maltose” value was −250%.
In the case of “RG13 I329W/A96W: RG13 with MBP hinge mutations I329W and A96W; SEQ ID NO: 65”, the Kd in data set [3] is 170 ± 20 nM. Further, the “Km Ratio (with effector)/(without effector)” value in data set [4] (effector maltose 5 mM) stood at 0.23 ± 0.04. In data set [4] (setting [6]), the “kcat Ratio (with effector)/(without effector)” value was 1.5 ± 0.2 and the “kcat/Km Ratio (with effector)/(without effector)” value was 6.4 ± 1.3. In addition, in data set [4] (setting [7]), the Km turned out to be 60 ± 4 µM and the kcat is 530 ± 20 s⁻¹. Also, in data set [4] (no effector, pH 7.0, 25° C.), the Km was 260 ± 40 µM and the turnover number (kcat) is 360 ± 40 s⁻¹.

B1: BLA: penicillin-hydrolyzing enzyme TEM1 β-lactamase, parent enzyme of the switches (protein, UniProt P62593 24-286, looked up)
Beta-lactamase TEM: HPETLVKVKDAEDQLGARVGYIELDLNSGKILESFRPEERFPMMSTFKVLLCGAVLSRVDAGQEQLGRRIHYSQNDLVEYSPVTEKHLTDGMTVRELCSAAITMSDNTAANLLLTTIGGPKELTAFLHNMGDHVTRLDRWEPELNEAIPNDERDTTMPAAMATTLRKLLTGELLTLASRQQLIDWMEADKVAGPLLRSALPAGWFIADKSGAGERGSRGIIAALGPDGKPSRIVVIYTTGSQATMDERNRQIAEIGASLIKHW
In the case of B1, the catalytic constant (kcat) was 900 s⁻¹ in data set [5] (previously reported for BLA at 24° C. (Sigal et al. 1984)) and 930 s⁻¹ in data set [5] (previously reported, 30° C. (Raquet et al. 1994)). Moreover, the Michaelis-Menten constant (Km) in data set [5] (previously reported for BLA at 24° C. (Sigal et al. 1984), read-out: Km) was 110 µM; in data set [5] (previously reported, 30° C. (Raquet et al. 1994), read-out: Km), 52 µM; in data set [5] (substrate ampicillin (Raquet et al. 1994), read-out: Km for TEM-1 β-lactamase) it was 32 µM; in data set [5] (substrate benzylpenicillin (Raquet et al. 1994), read-out: Km for TEM-1 β-lactamase), 19 µM; in data set [5] (substrate cephalothin (Raquet et al. 1994), read-out: Km for TEM-1 β-lactamase) it was 246 µM; in data set [5] (substrate oxacillin (Raquet et al. 1994), read-out: Km for TEM-1 β-lactamase) it was 3 µM. Moreover, the “Effect of maltose on wild type BLA enzymatic activity” value in data set [5] (with or without an equimolar amount of MBP (Guntas et al. 2004)) is “no effect”. The “Minimum Inhibitory Concentration of Ampicillin” value in the data set on DH5α-E cells (50 μM maltose) and in the data set on DH5α-E cells (No maltose) was “≧2000 μg/ml” throughout.
